B1: Mitochondrial import receptor subunit TOM70 (Homo sapiens), O94826 (parent)
chain: MAASKPVEAAVVAAAVPSSGSGVGGGGTAGPGTGGLPRWQLALAVGAPLLLGAGAIYLWSRQQRRREARGRGDASGLKRNSERKTPEGRASPAPGSGHPEGPGAHLDMNSLDRAQAAKNKGNKYFKAGKYEQAIQCYTEAISLCPTEKNVDLSTFYQNRAAAFEQLQKWKEVAQDCTKAVELNPKYVKALFRRAKAHEKLDNKKECLEDVTAVCILEGFQNQQSMLLADKVLKLLGKEKAKEKYKNREPLMPSPQFIKSYFSSFTDDIISQPMLKGEKSDEDKDKEGEALEVKENSGYLKAKQYMEEENYDKIISECSKEIDAEGKYMAEALLLRATFYLLIGNANAAKPDLDKVISLKEANVKLRANALIKRGSMYMQQQQPLLSTQDFNMAADIDPQNADVYHHRGQLKILLDQVEEAVADFDECIRLRPESALAQAQKCFALYRQAYTGNNSSQIQAAMKGFEEVIKKFPRCAEGYALYAQALTDQQQFGKADEMYDKCIDLEPDNATTYVHKGLLQLQWKQDLDRGLELISKAIEIDNKCDFAYETMGTIEVQRGNMEKAIDMFNKAINLAKSEMEMAHLYSLCDAAHAQTEVAKKYGLKPPTL

Variants of: B1
Settings: with orf9b_sars2 orf9b

Variant	effect of a mutation on the interaction
E477A	decreasing interaction strength

Variants of: B1
Settings: with orf9b_sars2 orf9b
Remark: another data set of the same source

Variant	effect of a mutation on the interaction
R192A	decreasing interaction strength

Reference: IntAct's records for PubMed 34502139
